Measured values: patent publication US20070196883A1, “ENZYME” (UNIVERSITY OF DUNDEE, priority 1999, published 2007)

Assays:
[1] = target: T1, endogenous PDK1 associated with GST-PIF (Homo sapiens, UniProt O15530); experiment: Dissociation of endogenous PDK1 from purified GST-PIF by peptide; assay type: binding; settings: peptide 100 μM, GST-PIF purified from 293 cells
T1 construct: endogenous in cells; host or cells: 293 cells transfected with pEBG2T GST-PIF; endogenous PDK1 co-purified on glutathione-Sepharose
Source text: In contrast, a mutant peptide in which the residue corresponding to Asp978 was changed to Ala (termed “D978A-Region B peptide”) interacted with PDK1>fold 10-less strongly (FIG. 13).

His-PDK1 = target: T2, His-PDK1 (Homo sapiens, UniProt O15530); experiment: Conversion of His-PDK1 into a Ser473 PKBα kinase by synthetic peptide (P-Ser473 immunoblot); assay type: biochemical; settings: peptide at 20 µM, 3-phosphoinositide vesicles, MgATP
T2 construct: made in house; host or cells: Sf21 insect cells (baculovirus, pFASTBAC HTb)
T2 sequence (O15530 1-556): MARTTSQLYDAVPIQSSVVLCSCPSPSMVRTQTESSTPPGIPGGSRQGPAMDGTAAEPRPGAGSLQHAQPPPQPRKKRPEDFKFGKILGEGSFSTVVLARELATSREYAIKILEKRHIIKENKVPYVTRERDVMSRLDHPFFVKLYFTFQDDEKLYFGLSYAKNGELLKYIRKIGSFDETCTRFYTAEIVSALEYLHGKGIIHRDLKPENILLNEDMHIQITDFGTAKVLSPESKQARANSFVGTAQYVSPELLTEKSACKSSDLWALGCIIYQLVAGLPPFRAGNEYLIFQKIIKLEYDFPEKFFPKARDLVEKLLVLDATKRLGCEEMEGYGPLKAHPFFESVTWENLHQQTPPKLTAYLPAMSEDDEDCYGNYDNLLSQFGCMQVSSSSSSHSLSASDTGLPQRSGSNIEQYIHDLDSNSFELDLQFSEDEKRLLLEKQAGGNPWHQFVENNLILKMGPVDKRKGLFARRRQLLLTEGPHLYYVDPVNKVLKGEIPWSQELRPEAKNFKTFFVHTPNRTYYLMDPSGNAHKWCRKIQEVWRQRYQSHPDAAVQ
Method: FIG. 6. Conversion of PDK1 into an enzyme that can phosphorylate both Thr308 and Ser473 of PKB by addition of a synthetic peptide. […] After allowing to stand for 1 h at 4° C. GST-PKBα, MgATP and the indicated phospholipid vesicles containing 100 μM PtdCho, 100 μM PtdSer, and either 10 μM sn-1-stearoyl-2-arachidonoyl-D-PtdIns(3,4,5)P3 (1,2-SAD-PtdIns(3,4,5)P3), or sn-1,2 di-palmitoyl-D-PtdIns(3,4,5)P3 (C16-PtdIns(3,4,5)P3) or sn-1,2 di-palmitoyl-D-PtdIns(3,4)P2 (C16-PtdIns(3,4)P2) were added. After 1 h at 30° C., the reactions were terminated by making the solutions 1% in SDS, the samples were subjected to SDS/polyacylamide gel electrophoresis and immunoblotted using P-Ser473 antibody. Identical results were obtained in 2 separate experiments. […]
Phosphorylation of GST-PKBα by incubation with GST-PIF. In experiments in which the phosphorylation of PKBα was determined using the phospho-specific Ser473 PKBα antibodies, the incubations were identical to the Stage 1 described above except that the reactions were terminated by the addition of 1% (by mass) SDS and immunoblotting is carried out as described below. In experiments in which the sites of phosphorylation on PKBα are determined the incubations were identical to the Stage 1 described above except [γ^32P] […]

T1 sequence (Q16513 908-984 partner limits assumed, one chain of several): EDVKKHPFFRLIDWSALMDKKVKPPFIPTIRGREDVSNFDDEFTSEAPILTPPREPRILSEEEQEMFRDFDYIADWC

D978A-Region B peptide: mutant peptide in which the residue corresponding to Asp978 was changed to Ala (REPRILSEEEQEMFRDFAYIADWC)
dissociation of the endogenous PDK1 from GST-PIF [1]: incapable of inducing the dissociation | inducing His-PDK1 to phosphorylate PKBα at Ser473 (His-PDK1): far less effective
